Test results as given in patent US20240382677A1 (Regeneron, published 2024).
Values belong to the binder of their own block, whether it stands above or below them.

Assays:
[1] = target: T1, monkey PD-1 with mFc (monkey PD-1-mFc) (monkey); experiment: SPR 37C, mAb captured;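 note: Real-time binding of antigen to purified anti-PD-1 antibodies, measured by surface plasmon resonance on a Biacore 4000 or T200 instrument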
T1 construct: also called monkey PD-1 dimer; MfPD-1 dimer
T1 chain: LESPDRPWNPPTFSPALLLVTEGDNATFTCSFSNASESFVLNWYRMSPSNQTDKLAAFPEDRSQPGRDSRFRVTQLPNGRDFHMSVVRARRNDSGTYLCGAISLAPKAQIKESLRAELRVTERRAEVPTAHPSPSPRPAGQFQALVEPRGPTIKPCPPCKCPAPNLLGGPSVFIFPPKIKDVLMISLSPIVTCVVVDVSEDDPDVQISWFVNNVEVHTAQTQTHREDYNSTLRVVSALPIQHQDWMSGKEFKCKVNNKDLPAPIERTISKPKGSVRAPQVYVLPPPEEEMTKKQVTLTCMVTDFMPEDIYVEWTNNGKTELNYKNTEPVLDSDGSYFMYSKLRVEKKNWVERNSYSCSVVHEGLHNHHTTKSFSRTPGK
Experimental: (§1) Binding association and dissociation rate constants (ka and kd, respectively), equilibrium dissociation constants and dissociation half-lives (KD and t½, respectively) for antigen binding to purified anti-PD1 antibodies were determined using a real-time surface plasmon resonance biosensor assay on a Biacore 4000 or Biacore T200 instrument. […] Experiments were performed at 25° C. and 37° C. Kinetic association (ka) and dissociation (kd) rate constants were determined by processing and fitting the data to a 1:1 binding model using Scrubber 2.0c curve fitting software. Binding dissociation equilibrium constants (KD) and dissociative half-lives (t½) were then calculated from the kinetic rate constants as: KD (M)=kd/ka and t½ (min)=[ln 2/(60*kd)].

[2] = target: T1, monkey PD-1 with mFc (monkey PD-1-mFc); experiment: SPR 25C, mAb captured
Experimental: as §1

100 nM Monkey PD-1-mFc Bound [1]: 40 RU | t½ [1]: 0.317 h | 100 nM Monkey PD-1-mFc Bound [2]: 78 RU | t½ [2]: 1.93 h
B1: H4xH9035P (antibody, V domains shown)
VH: EVQLVESGGRVVRPGGSLRLSCAASGFTFDDYGMSWVRQLPGKGLEWVAGISWNDGKTVYAESVKGRFIISRDNAKNSLHLEMNSLRAEDTALYYCARDWQYLIDRYFDFWGQGTLVTVSS
VL: not shown

100 nM Monkey PD-1-mFc Bound [1]: 86 RU | t½ [1]: 0.133 h | 100 nM Monkey PD-1-mFc Bound [2]: 122 RU | t½ [2]: 0.767 h
B2: H4xH8992P (antibody, V domains shown)
VH: EVQLVESGGGLVQPGRSLRLSCVASGFALHDYAMHWVRQVPGKGLEWVSSISWNSGVIGYADSLKGRFTISRDNAKNSLYLQMNSLRAEDTALYYCAKGSGSYYVSWFDPWGQGTLVTVSS
VL: not shown
notes: human IgG4 Fc with 2 or more amino acid changes (US20100331527)

100 nM Monkey PD-1-mFc Bound [1]: 84 RU | 100 nM Monkey PD-1-mFc Bound [2]: 115 RU | t½ [2]: 1.05 h
B3: H4xH9048P2 (antibody, V domains shown)
VH: QVQLVQSGAEVKRPGSSVKVSCKVSGVTFRNFAIIWVRQAPGQGLEWMGGIIPFFSAANYAQSFQGRVTITPDESTSTAFMELASLRSEDTAVYYCAREGERGHTYGFDYWGQGTLVTVSS
VL: not shown

100 nM Monkey PD-1-mFc Bound [1]: 88 RU | t½ [1]: 1.52 h | 100 nM Monkey PD-1-mFc Bound [2]: 93 RU | t½ [2]: 3.13 h
B4: H4H7798N (antibody, human IgG4 S228P, kappa, V domains shown)
VH: EVQLLESGGVLVQPGGSLRLSCAASGFTFSNFGMTWVRQAPGKGLEWVSGISGGGRDTYFADSVKGRFTISRDNSKNTLYLQMNSLKGEDTAVYYCVKWGNIYFDYWGQGTLVTVSS
VL: DIQMTQSPSSLSASVGDSITITCRASLSINTFLNWYQQKPGKAPNLLIYAASSLHGGVPSRFSGSGSGTDFTLTIRTLQPEDFATYYCQQSSNTPFTFGPGTVVDFRR
notes: human IgG4 Fc; also called REGN2810; cemiplimab

100 nM Monkey PD-1-mFc Bound [1]: 98 RU | t½ [2]: 3.33 h
B5: H4xH9008P (antibody, V domains shown)
VH: EVQLVESGGGLVRPGGSLRLSCAASGFTFSTYAMAWVRQTPGKGLEGVSAIGGSGDSTYYVDSVKGRFTISRDNSKSTLFLQMNSLRAEDTAVYYCVKVRNYDGSFDIWGQGTMVTVSS
VL: not shown
notes: as for B2

100 nM Monkey PD-1-mFc Bound [1]: 65 RU | t½ [1]: 0.133 h | 100 nM Monkey PD-1-mFc Bound [2]: 78 RU | t½ [2]: 1.15 h
B6: H4xH9045P (antibody, V domains shown)
VH: EVQLVESGGGLVQPGRSLRLSCAASGFTFDDYDMHWVRQAPGKGLEWVSGSGWNRGSLGYADSVKGRFTISRDNAKKSLYLQMNSVRVEDTALYYCAKGFVVVSAAYFDYWGQGTLVTVSS
VL: not shown

100 nM Monkey PD-1-mFc Bound [1]: 28 RU | t½ [1]: 0.04 h | 100 nM Monkey PD-1-mFc Bound [2]: 75 RU | Kd [2]: 2.96 nM | t½ [2]: 0.633 h
B7: H4H9057P2 (antibody, V domains shown)
VH: EVQLVESGGGLVQSGRSLRLSCAASGFTFDDYAMHWVRQPPGKGLEWVSGINWNRGRTGYADSVKGRFTISRDNAKNSLYLQMNDLRVEDTALYYCAKAEQWLDEGYFDYWGQGTLVTVSS
VL: not shown

100 nM Monkey PD-1-mFc Bound [1]: 83 RU | t½ [1]: 0.383 h | 100 nM Monkey PD-1-mFc Bound [2]: 128 RU | t½ [2]: 1.67 h
B8: H4xH8999P (antibody, V domains shown)
VH: QLQLQESGPGLVQPSETLSLTCTVSGDSISSTAYHWDWIRQPPGKGLEWIGTITYNGNTYFNPSLKSRVTISVDTSKNQFSLKLLSMTAAETAVFYCARHLGYNSDFFPFDFWGQGTLVTVSS
VL: not shown
notes: as for B2

100 nM Monkey PD-1-mFc Bound [1]: 24 RU | 100 nM Monkey PD-1-mFc Bound [2]: 58 RU | t½ [2]: 1.4 h
B9: H4xH9037P (antibody, V domains shown)
VH: EVQLVESGGGLVQPGGSLRLSCAASGFTFDDYAMHWVRQAPGKGLEWVSGIGWSSGSIGYADSVKGRFTISRDNAKNSLYLQMDSLRPEDSALYYCAKAYTFMITLYFDYWGQGTLVTVSS
VL: not shown

100 nM Monkey PD-1-mFc Bound [1]: 47 RU | t½ [1]: 0.667 h | 100 nM Monkey PD-1-mFc Bound [2]: 60 RU | t½ [2]: 1.93 h
B10: H4H7795N2 (antibody, human IgG4 S228P, kappa, V domains shown)
VH: EVQVVESGGGLVEPGRSLRLSCKASGFTFDDYAMHWVRQTPGKALEWVSGISWSGNNIGYADSVKGRFTISKDDAKNSLYLQMNSLRPEDTALYYCTKDISITGTLDAFDVWGQGTMVTVSS
VL: DIQMTQSPISVSASVGDRVTITCRASQGISNWLAWYQQKPGIAPKLLIYSASSLQSGVPSRFRGSGSGTDFTLTIGSLQPEDFATYYCQQAHSFPLTFGGGTKVEIKR
notes: human IgG4 Fc
